From paper PMC7736794

Biological target: T1, PrimPol (endogenous, OVCAR8), Q96LW4
T1 chain: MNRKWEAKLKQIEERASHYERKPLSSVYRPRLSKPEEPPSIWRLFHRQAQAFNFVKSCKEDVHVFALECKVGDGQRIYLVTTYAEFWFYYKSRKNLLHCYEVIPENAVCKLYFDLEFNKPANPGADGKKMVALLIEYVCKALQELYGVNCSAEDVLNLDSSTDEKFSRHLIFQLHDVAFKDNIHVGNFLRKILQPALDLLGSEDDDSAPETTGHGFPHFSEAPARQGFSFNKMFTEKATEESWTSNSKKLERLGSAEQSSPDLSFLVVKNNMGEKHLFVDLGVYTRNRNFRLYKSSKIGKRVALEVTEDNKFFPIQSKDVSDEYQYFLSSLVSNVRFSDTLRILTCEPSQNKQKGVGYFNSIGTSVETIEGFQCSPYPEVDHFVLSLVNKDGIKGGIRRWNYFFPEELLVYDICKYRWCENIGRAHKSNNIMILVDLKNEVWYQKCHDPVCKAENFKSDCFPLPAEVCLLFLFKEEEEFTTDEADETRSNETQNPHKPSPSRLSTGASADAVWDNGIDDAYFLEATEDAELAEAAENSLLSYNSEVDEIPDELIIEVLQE
Assay: in situ proximity ligation assay (PLA)
Conditions: chain shown with the change, USP36 stably knock-down OVCAR8 cells, read off a plot

- response (PLA puncta / cell) (HU (10 mM) for 4 h, parent: est. 17): 15
- response (PLA puncta / cell) (untreated (Ctrl), parent: est. 11): 15
B1: USP36-wild-type (WT), transfected in OVCAR8, Q9P275 K329R; K338R (protein)
chain: MPIVDKLKEALKPGRKDSADDGELGKLLASSAKKVLLQKIEFEPASKSFSYQLEALKSKYVLLNPKTEGASRHKSGDDPPARRQGSEHTYESCGDGVPAPQKVLFPTERLSLRWERVFRVGAGLHNLGNTCFLNATIQCLTYTPPLANYLLSKEHARSCHQGSFCMLCVMQNHIVQAFANSGNAIKPVSFIRDLKKIARHFRFGNQEDAHEFLRYTIDAMQKACLNGCAKLDRQTQATTLVHQIFGGYLRSRVKCSVCKSVSDTYDPYLDVALEIRQAANIVRALELFVKADVLSGENAYMCAKCKKKVPASKRFTIHRTSNVLTLSLRRFANFSGGRITKDVGYPEFLNIRPYMSQNNGDPVMYGLYAVLVHSGYSCHAGHYYCYVKASNGQWYQMNDSLVHSSNVKVVLNQQAYVLFYLRIPGSKKSPEGLISRTGSSSLPGRPSVIPDHSKKNIGNGIISSPLTGKRQDSGTMKKPHTTEEIGVPISRNGSTLGLKSQNGCIPPKLPSGSPSPKLSQTPTHMPTILDDPGKKVKKPAPPQHFSPRTAQGLPGTSNSNSSRSGSQRQGSWDSRDVVLSTSPKLLATATANGHGLKGNDESAGLDRRGSSSSSPEHSASSDSTKAPQTPRSGAAHLCDSQETNCSTAGHSKTPPSGADSKTVKLKSPVLSNTTTEPASTMSPPPAKKLALSAKKASTLWRATGNDLRPPPPSPSSDLTHPMKTSHPVVASTWPVHRARAVSPAPQSSSRLQPPFSPHPTLLSSTPKPPGTSEPRSCSSISTALPQVNEDLVSLPHQLPEASEPPQSPSEKRKKTFVGEPQRLGSETRLPQHIREATAAPHGKRKRKKKKRPEDTAASALQEGQTQRQPGSPMYRREGQAQLPAVRRQEDGTQPQVNGQQVGCVTDGHHASSRKRRRKGAEGLGEEGGLHQDPLRHSCSPMGDGDPEAMEESPRKKKKKKRKQETQRAVEEDGHLKCPRSAKPQDAVVPESSSCAPSANGWCPGDRMGLSQAPPVSWNGERESDVVQELLKYSSDKAYGRKVLTWDGKMSAVSQDAIEDSRQARTETVVDDWDEEFDRGKEKKIKKFKREKRRNFNAFQKLQTRRNFWSVTHPAKAASLSYRR
